The test concerns the target T Cell Receptor Gamma Variable 9 (TRGV9) on human γδ T cells (human) (UniProt Q99603). Kind of test: binding to γδ-enriched T cells, 1 h at 37 °C (panel γδ T-cell binding).

The values below come from US20210032338A1.

B1: VG9B2, chimera human IgG1 mAb (silent Fc) of mouse anti-human TCR Vγ9 clone B3 (antibody, V domains shown)
VH: QGQMQQSGAELVKPGASVKLSCKTSGFTFSSNYISWLKQKPGQSLEWIAWIHGGTGGIGYNQKFTGKAQLTVDTSSTTAYMQFSSLTTEDSAIYYCARRGYGAWFAYWGQGTLVTVSA
VL: DIQMTQSPASLSASVGETVTITCRASENIHNYLAWYQQKQGKSPQLLVYNAKTLADGVPSRFSGSGSGTQYSLKINSLQPEDFGNYYCQHFWSYPLTFGAGTKLELK
In general, EC50 refers to the concentration at which the effect is half-maximal. Low readings indicate a more potent agent, high ones a less potent agent. On to B1, for which the EC50 came to 560 pM.
